Like-named read-outs stand apart in the source and are kept apart here. Values belong to the molecule of their own block, whether it stands above or below them.
B1: CaDoc0917, dockerin module of Clostridium acetobutylicum (domain or fragment, UniProt Q97KK2 477-537, looked up)
chain: NTILGDLNDDGVVNGRDIVMMRQYLAGKTVSGIDKNALDINGDGAVNGRDLMELIKKVSNN
B2: CaCohA2, cohesin module of Clostridium acetobutylicum (domain or fragment, UniProt Q977Y4 611-759, looked up)
chain: VKNETVKLSVGTVSGNPGDTVKVPVTISQVSTPVGLICMDISYDASKFTVKDVLPNTDLVKDTDNYSFIVNTSTPGKISITFTDPTLANYPISVDGILAYLDFIINSNATAGDSALTVDPATLIVADENDKDIKDAASNGKITVTGSAP

Assays:
Test in all cases: ITC
[1] = biological target: CaDoc0917(R16D) (Clostridium acetobutylicum)
[2] = biological target: CaDoc0917(R49D) (Clostridium acetobutylicum)
[3] = biological target: CaDoc0917(R16D) (Clostridium acetobutylicum); remark: listed apart in the source
[4] = biological target: CaDoc0917(R49D) (Clostridium acetobutylicum); remark: listed apart in the source
[5] = biological target: B2
[6] = biological target: B2; remark: listed apart in the source
[7] = biological target: B2; remark: listed apart in the source
[8] = biological target: B1
[9] = biological target: CaDoc0917(R49D/V19M) (Clostridium acetobutylicum)
[10] = biological target: CaDoc0917(R16D/M52V) (Clostridium acetobutylicum)
[11] = biological target: CaDoc0917(R49D/R22I) (Clostridium acetobutylicum)
[12] = biological target: CaDoc0917(R16D/I55R) (Clostridium acetobutylicum)
[13] = biological target: CaDoc0917(R16DE53Q) (Clostridium acetobutylicum)
[14] = biological target: B1; remark: listed apart in the source
[15] = biological target: B1; remark: listed apart in the source
[16] = biological target: CaDoc0917(R49D/V19M) (Clostridium acetobutylicum); remark: listed apart in the source
[17] = biological target: CaDoc0917(R16D/M52V) (Clostridium acetobutylicum); remark: listed apart in the source
[18] = biological target: CaDoc0917(R49D/R22I) (Clostridium acetobutylicum); remark: listed apart in the source
[19] = biological target: CaDoc0917(R16D/I55R) (Clostridium acetobutylicum); remark: listed apart in the source

Molecule: CaCohA2 E128Q (domain or fragment)
Ka [1]: 120000 M⁻¹
Ka [2]: 1.57e+06 M⁻¹
Ka [3]: 2.2e+07 M⁻¹
Ka [4]: 2.1e+07 M⁻¹

Molecule: B1
Ka [5]: 1.48e+08 M⁻¹
Ka [6]: 1.8e+06 M⁻¹
Ka [7]: 2.4e+07 M⁻¹

Molecule: B2
dH [8]: -7.37 ± 0.04 kcal/mol
stoichiometry N [8]: 0.95 ± 0.002
Ka [9]: 1.98e+06 M⁻¹
Ka [1]: 170000 M⁻¹
Ka [10]: 290000 M⁻¹
Ka [11]: 180000 M⁻¹
Ka [2]: 1.39e+06 M⁻¹
Ka [12]: 1.04e+06 M⁻¹
Ka [13]: 1.93e+06 M⁻¹
dH [14]: -9.54 ± 0.13 kcal/mol
stoichiometry N [14]: 1.09 ± 0.011
dH [15]: -4.67 ± 0.03 kcal/mol
stoichiometry N [15]: 0.862 ± 0.003
Ka [16]: 5.15e+08 M⁻¹
Ka [3]: 1.03e+08 M⁻¹
Ka [17]: 2.9e+07 M⁻¹
Ka [18]: 2.1e+07 M⁻¹
Ka [4]: 4.3e+07 M⁻¹
Ka [19]: 1.32e+08 M⁻¹

Results, then the molecule that gave them:

Ka [1]: 460000 M⁻¹
Ka [2]: 2.32e+06 M⁻¹
Ka [3]: 3.6e+06 M⁻¹
Ka [4]: 1.1e+07 M⁻¹
Molecule: CaCohA2 E128Q/D130N (domain or fragment)

Ka [1]: 320000 M⁻¹
Ka [2]: 4.24e+06 M⁻¹
Ka [4]: 2.1e+07 M⁻¹
Molecule: CaCohA2 D130N (domain or fragment)

From PMC7608827 (Science Advances, 2020)
